{"source": "patent US20190225686A1", "about": "(Daiichi Sankyo, published 2019)", "binders": {"B1": {"name": "rat anti-GPR20 antibody 04-079 (antibody, rat IgG2b, V domains shown)", "VH": "QVQLQQSGAELAKPGSSVKISCKASGYTFTSYYITWIKQTTGQGLKYIGYINPGSGHTNYNEKFKGKATLTVDKSSSTAFMQLSSLTPDDSAVYYCARGAGGFLRIISKFDYWGQGVMVTVSS", "VL": "DTVLTQSPALAVSLGQRVTISCRASKSVSTYMHWYQQRSGQQPKLLIYSASNLESGVPSRFSGSGSGTDFTLTIDPVKADDITNYYCQQSNELPYTFGAGTKLELKR", "notes": "Rat IgG2b, kappa; also called 04-079 antibody"}, "B2": {"name": "rat anti-GPR20 antibody 04-126 (antibody, rat IgG2b, V domains shown)", "VH": "B1 VH with Q5R, T35I, I37M, T41A, K46Q, I48V, A100T", "VL": "B1 VL with N52T, K78E, T83A", "notes": "Rat IgG2b, kappa; also called 04-126 antibody; 04-0126"}, "B3": {"name": "rat anti-GPR20 antibody 04-046 (antibody, rat IgG2b)", "heavy": "QVQLQQSGAELAKPGSSVKISCKASGYTFTSYYISWIKQTTGQGLKYIGFINPGSGHTNYNEKFKGKATLTVDKSSSTAFMQLSSLTPDDSAIYYCARGAGGFLRIITKFDYWGQGVMVTVSSAQTTAPSVYPLAPGCGDTTSSTVTLGCLVKGYFPEPVTVTWNSGALSSDVHTFPAVLQSGLYTLTSSVTSSTWPSQTVTCNVAHPASSTKVDKKVERRNGGIGHKCPTCPTCHKCPVPELLGGPSVFIFPPKPKDILLISQNAKVTCVVVDVSEEEPDVQFSWFVNNVEVHTAQTQPREEQYNSTFRVVSALPIQHQDWMSGKEFKCKVNNKALPSPIEKTISKPKGLVRKPQVYVMGPPTEQLTEQTVSLTCLTSGFLPNDIGVEWTSNGHIEKNYKNTEPVMDSDGSFFMYSKLNVERSRWDSRAPFVCSVVHEGLHNHHVEKSISRPPGK", "light": "DTVLTQSPALAVSLGQRVTISCRASKSVSTYIHWYQQRSGQQPKLLIYSASNLESGVPSRFSGSGSGTDFTLTIDPVEPDDIANYYCQQINELPYTFGAGTKLELKRADAAPTVSIFPPSTEQLATGGASVVCLMNNFYPRDISVKWKIDGTERRDGVLDSVTDQDSKDSTYSMSSTLSLTKADYESHNLYTCEVVHKTSSSPVVKSFNRNEC", "notes": "Rat IgG2b, kappa; also called 04-046 antibody"}, "B4": {"name": "humanized h046-H4b/L7 (antibody, human IgG1, kappa)", "heavy": "not shown", "light": "DTQLTQSPSSLSASVGDRVTITCRASKSVSTYIHWYQQKPGKQPKLLIYSAGNLESGVPSRFSGSGSGTDFTLTISSLQPEDFANYYCQQINELPYTFGQGTKVEIKRTVAAPSVFIFPPSDEQLKSGTASVVCLLNNFYPREAKVQWKVDNALQSGNSQESVTEQDSKDSTYSLSSTLTLSKADYEKHKVYACEVTHQGLSSPVTKSFNRGEC", "notes": "Humanized IgG1 / kappa"}, "B5": {"name": "antibody-drug conjugate (7) h046-H4b/L7-ADC2 (antibody, human IgG1, kappa)", "heavy": "not shown", "light": "B4 light", "modifications": "ADC2 exatecan drug linker on the interchain-disulfide cysteine, thioether bond; position not given; ADC2 exatecan drug linker (maleimide-PEG2-GGFG-NH-CH2CH2CH2-C(=O)-(NH-DX)) on cysteine sulfhydryls of reduced interchain disulfides, thioether bond; positions not given", "notes": "average drug number 6.1 (E) / 7.6 (F)"}, "B6": {"name": "antibody-drug conjugate h046-H4b/L7-ADC1 (antibody, human IgG1, kappa)", "heavy": "not shown", "light": "B4 light", "modifications": "ADC1 exatecan drug linker on the interchain-disulfide cysteine, thioether bond; position not given; ADC1 exatecan drug linker (maleimidocaproyl-GGFG-NH-CH2-O-CH2-C(=O)-(NH-DX)) on cysteine sulfhydryls of reduced interchain disulfides, thioether bond; positions not given", "notes": "also called antibody-drug conjugate (3); antibody-drug conjugate (4)"}, "B7": {"name": "humanized h046-H4e/L7 (antibody, human IgG1, kappa)", "heavy": "not shown", "light": "B4 light", "notes": "Humanized IgG1 / kappa"}, "B8": {"name": "humanized h046-H5b/L2 (antibody, human IgG1, kappa, V domains shown)", "VH": "QVQLVQSGAEVKKPGASVKVSCKASGYTFTSYYISWIRQAPGQGLKYMGFINPGSGHTNYNEKFKGRVTITADKSSSTANMELSSLRSEDTAVYYCARGAGGFLRIITKFDYWGQGTLVTVSS", "VL": "DIQMTQSPSSLSASVGDRVTITCRASKSVSTYIHWYQQKPGKQPKLLIYSASNLESGVPSRFSGSGSGTDFTLTISSLQPEDFATYYCQQINELPYTFGQGTKVEIKR", "notes": "Humanized IgG1 / kappa"}, "B9": {"name": "antibody-drug conjugate (5) h046-H5b/L2-ADC1 (antibody, human IgG1, kappa, V domains shown)", "VH": "B8 VH", "VL": "B8 VL", "modifications": "ADC1 exatecan drug linker on the interchain-disulfide cysteine, thioether bond; position not given; ADC1 exatecan drug linker (maleimidocaproyl-GGFG-NH-CH2-O-CH2-C(=O)-(NH-DX)) on cysteine sulfhydryls of reduced interchain disulfides, thioether bond; positions not given", "notes": "average drug number 5.4 (E) / 7.9 (F)"}, "B10": {"name": "antibody-drug conjugate h046-H4e/L7-ADC1 (antibody, human IgG1, kappa)", "heavy": "not shown", "light": "B4 light", "modifications": "ADC1 exatecan drug linker on the interchain-disulfide cysteine, thioether bond; position not given; ADC1 exatecan drug linker (maleimidocaproyl-GGFG-NH-CH2-O-CH2-C(=O)-(NH-DX)) on cysteine sulfhydryls of reduced interchain disulfides, thioether bond; positions not given", "notes": "also called antibody-drug conjugate (13); antibody-drug conjugate (14)"}, "B11": {"name": "antibody-drug conjugate (8) h046-H5b/L2-ADC2 (antibody, human IgG1, kappa, V domains shown)", "VH": "B8 VH", "VL": "B8 VL", "modifications": "ADC2 exatecan drug linker on the interchain-disulfide cysteine, thioether bond; position not given; ADC2 exatecan drug linker (maleimide-PEG2-GGFG-NH-CH2CH2CH2-C(=O)-(NH-DX)) on cysteine sulfhydryls of reduced interchain disulfides, thioether bond; positions not given", "notes": "average drug number 6.0 (E) / 7.7 (F)"}, "B12": {"name": "humanized h046-H10/L6 (antibody, human IgG1, kappa, V domains shown)", "VH": "B1 VH with I20V, T35S, Y50F, F80N, V93I, S108T", "VL": "B8 VL with I2T, M4L, N53D, L54R, T85N", "notes": "the claims and summary say 20 to 474"}, "B13": {"name": "antibody-drug conjugate (12) h046-H10/L6-ADC1 (antibody, human IgG1, kappa, V domains shown)", "VH": "B1 VH with I20V, T35S, Y50F, F80N, V93I, S108T", "VL": "B8 VL with I2T, M4L, N53D, L54R, T85N", "modifications": "ADC1 exatecan drug linker on the interchain-disulfide cysteine, thioether bond; position not given; ADC1 exatecan drug linker (maleimidocaproyl-GGFG-NH-CH2-O-CH2-C(=O)-(NH-DX)) on cysteine sulfhydryls of reduced interchain disulfides, thioether bond; positions not given", "notes": "average drug number 5.5 (E) / 8.0 (F)"}, "B14": {"name": "antibody-drug conjugate (1) 046Ch-ADC2 (antibody, human IgG1)", "heavy": "not shown", "light": "DTVLTQSPALAVSLGQRVTISCRASKSVSTYIHWYQQRSGQQPKLLIYSASNLESGVPSRFSGSGSGTDFTLTIDPVEPDDIANYYCQQINELPYTFGAGTKLELKRAVAAPSVFIFPPSDEQLKSGTASVVCLLNNFYPREAKVQWKVDNALQSGNSQESVTEQDSKDSTYSLSSTLTLSKADYEKHKVYACEVTHQGLSSPVTKSFNRGEC", "modifications": "ADC2 exatecan drug linker on the interchain-disulfide cysteine, thioether bond; position not given; ADC2 exatecan drug linker (maleimide-PEG2-GGFG-NH-CH2CH2CH2-C(=O)-(NH-DX)) on cysteine sulfhydryls of reduced interchain disulfides, thioether bond; positions not given", "notes": "average drug number per antibody 5.6 (procedure E)"}, "B15": {"name": "antibody-drug conjugate (2) 046Ch-ADC1 (antibody, human IgG1)", "heavy": "not shown", "light": "B14 light", "modifications": "ADC1 exatecan drug linker on the interchain-disulfide cysteine, thioether bond; position not given; ADC1 exatecan drug linker (maleimidocaproyl-GGFG-NH-CH2-O-CH2-C(=O)-(NH-DX)) on cysteine sulfhydryls of reduced interchain disulfides, thioether bond; positions not given", "notes": "as for B14"}}, "note": "Residue numbers refer to the chain shown, from its start.", "data": [{"target": "T1, human GPR20 (human, UniProt Q99678 1-358)", "T1 sequence (Q99678 whole entry)": "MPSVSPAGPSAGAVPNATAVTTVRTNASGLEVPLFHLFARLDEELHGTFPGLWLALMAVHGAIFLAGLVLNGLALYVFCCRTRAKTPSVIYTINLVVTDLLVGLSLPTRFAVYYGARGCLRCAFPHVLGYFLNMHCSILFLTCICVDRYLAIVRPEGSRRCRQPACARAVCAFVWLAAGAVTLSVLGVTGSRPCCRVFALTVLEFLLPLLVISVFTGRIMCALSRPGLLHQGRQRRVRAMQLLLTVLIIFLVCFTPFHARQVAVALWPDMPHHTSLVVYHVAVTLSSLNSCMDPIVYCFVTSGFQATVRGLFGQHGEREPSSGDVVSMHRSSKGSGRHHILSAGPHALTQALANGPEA", "test": "cell-based or functional assay", "units": {"cell proliferation suppression rate (Rat-ZAP internalization screening)": "%"}, "values": [{"binder": "B1", "cell proliferation suppression rate (Rat-ZAP internalization screening)": "≥ 60"}, {"binder": "B2", "cell proliferation suppression rate (Rat-ZAP internalization screening)": "≥ 60"}, {"binder": "B3", "cell proliferation suppression rate (Rat-ZAP internalization screening)": "≥ 60"}]}, {"target": "GPR20-EGFP protein comprising human GPR20 linked at its C-terminus to EGFP (human, UniProt Q99678 1-358)", "sequence (Q99678 whole entry)": "as above", "test": "cell-based or functional assay", "units": {"Cell survival rate (%) in internalization activity evaluation": "%"}, "values": [{"binder": "B1", "Cell survival rate (%) in internalization activity evaluation": 62}, {"binder": "B2", "Cell survival rate (%) in internalization activity evaluation": 54}, {"binder": "B3", "Cell survival rate (%) in internalization activity evaluation": 57}]}, {"target": "T2, mouse GPR20 (mouse, UniProt Q8BYC4 1-358)", "T2 construct": "whole, on cells; also called mGPR20; mouse GPR20 (NP_775541)", "T2 sequence (Q8BYC4 whole entry)": "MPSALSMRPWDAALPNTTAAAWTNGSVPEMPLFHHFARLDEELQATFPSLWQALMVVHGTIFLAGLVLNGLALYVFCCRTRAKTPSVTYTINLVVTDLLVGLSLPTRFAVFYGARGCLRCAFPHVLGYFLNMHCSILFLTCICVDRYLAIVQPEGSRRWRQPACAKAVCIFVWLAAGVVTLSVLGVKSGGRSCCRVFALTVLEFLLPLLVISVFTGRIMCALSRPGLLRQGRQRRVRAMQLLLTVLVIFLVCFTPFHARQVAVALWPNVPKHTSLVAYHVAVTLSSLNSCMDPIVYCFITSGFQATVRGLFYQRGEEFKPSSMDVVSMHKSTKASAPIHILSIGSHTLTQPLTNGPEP", "test": "Cell-ELISA on 293a cells transiently expressing mouse GPR20", "method": "(§1) The cells were left standing at 4° C. for 1 hour. […] The cells were left standing at 4° C. for 1 hour. The cells in the wells were washed three times with PBS (+) supplemented with 5% FBS, and thereafter, OPD chromogenic solution (which had been prepared by dissolving o-phenylenediamine dihydrochloride (Wako Pure Chemical Industries, Ltd.) and H₂O₂ in an OPD solution (0.05 M trisodium citrate, 0.1 M disodium hydrogen phosphate 12-water; pH 4.5), so that the substances became 0.4 mg/ml and 0.6% (v/v), respectively) was added in an amount of 100 μL/well to the wells. A coloring reaction was carried out with occasional stirring. Thereafter, 1 M HCl was added to the plate (100 μL/well) to terminate the coloring reaction, followed by measurement of the absorbance at 490 nm using a plate reader (ENVISION: PerkinElmer, Inc.).", "values": [{"binder": "B1", "binding result": "no binding"}, {"binder": "B2", "binding result": "no binding"}, {"binder": "B3", "binding result": "no binding"}]}, {"target": "T3, human/mouse chimeric GPR20 in which EC2 of human GPR20 was substituted with EC2 of mouse GPR20 (human, UniProt Q99678 1-358)", "T3 construct": "also called hGPR20_mECD2", "T3 sequence (Q99678 other isoform, or with tags, fused parts or gaps mutant)": "as the sequence (Q99678 whole entry) above, with Y113F counted along it", "test": "Cell-ELISA on 293a cells transiently expressing hGPR20_mECD2", "method": "as §1", "values": [{"binder": "B1", "binding result": "no binding"}, {"binder": "B2", "binding result": "no binding"}, {"binder": "B3", "binding result": "no binding"}]}, {"target": "T1, human GPR20", "test": "flow cytometry on 293T cells transfected with pcDNA3.1-hGPR20", "method": "The cells were cultured overnight under conditions of 37° C. and 5% CO₂, and thereafter, a cell suspension was prepared. To the obtained cell suspension, each humanized anti-GPR20 antibody was added, and the obtained mixture was left standing at 4° C. for 1 hour. […] The cells were left standing at 4° C. for 1 hour. The cells were washed twice with PBS supplemented with 5% FBS, and then re-suspended in PBS supplemented with 5% FBS, followed by detection using a flow cytometer (BD FACSCant II; BD Biosciences). The data was analyzed using Flowjo (Tree Star, Inc.). […] In the histograms of FIG. 24, the abscissa depicts the fluorescence intensity of PE indicating the amount of the antibody bound, and the ordinate depicts a cell count.", "values": [{"binder": "B4", "binding result": "binds"}, {"binder": "B5", "binding result": "binds"}, {"binder": "B6", "binding result": "binds"}, {"binder": "B7", "binding result": "binds"}, {"binder": "B8", "binding result": "binds"}, {"binder": "B9", "binding result": "binds"}, {"binder": "B10", "binding result": "binds"}, {"binder": "B11", "binding result": "binds"}, {"binder": "B12", "binding result": "binds"}, {"binder": "B13", "binding result": "binds"}, {"binder": "B14", "binding result": "binds"}, {"binder": "B15", "binding result": "binds"}]}]}
